# B1: TPR t1 (parent)
# chain: GACCAAUCUGCCCUCAGAGCUCGAGAACAUCUUCGGAUGCAGAGGAGGCAGGCUUCGGUGGCGCGAUAGCGCCAACGUCCUCAACCUCCAAUGCAUCCCACCACAUGAUGAUGCCUGAAGAGCCUUGGUUUUUUG
# Variants of: B1
# Experiment: polymerase ribozyme fitness, log enrichment relative to wild type (log ratio); higher = more active; in vitro selection for triplet polymerase activity
# In short: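 To select mutant libraries of each subunit of a heterodimeric triplet polymerase ribozyme, built by PCR and transcribed, each was annealed with a biotinylated primer, partner subunit and triplets, then incubated frozen at −7 °C. Extended constructs were gel-excised, captured on streptavidin beads and amplified by RT-PCR, in one round carried out in triplicate. Illumina sequencing of input and output libraries kept genotypes with ≥10 input reads and ≥1 read per output. Fitness is the base-2 logarithm of genotype enrichment relative to wild-type enrichment, from inverse-variance-weighted replicate averages.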
row,Variant,polymerase ribozyme fitness (log ratio)
1,A83U U133G,-0.873
2,A74U G113A U129A,-1.94
3,A83C C114G U132A,-2.52
4,U78C U109A G128A,-4.56
5,U78C A111G C124A,1.04
6,C76A U78A U96A,-1.43
7,U81G A95G,-4.01
8,A83C U126C,-1.26
9,C80A C123U,-2.06
10,G77C U129A,-1.42
11,C79G A121U,0.316
12,C76G A84U U133G,-0.998
13,U81G G120U,-3.76
14,C76A G120U,-0.741
15,U78A U87G,-0.804
16,U78C C85G C124A,-0.513
17,C80A U96C,-3.2
18,U78C G113A A118G U134G G135U,-1.82
19,A83C A84C A119G,0.957
20,A84G C85U,0.384
21,C79G C94A,-2.62

row,Variant,polymerase ribozyme fitness (log ratio)
1,C85A C115U,-2.7
2,U78A G113C,-2.57
3,C80U C88G,-1.25
4,G77A A95G G120A,0.0766
5,U78C C94G A95G A118U,-0.801
6,C79G A84C C104A,-4.75
7,U81A U87A,-1.41
8,G77A A90G,-0.174
9,G77C A83C C85U U109C C114G,-6.69
10,A83U,-0.119
11,A83C,-0.225
12,A83G,-0.489
13,C82U G127U,-0.724
14,C85U A108U C123G,-6.32
15,C82A C94A C104A,-3.13
16,A84U C115G,-3.83
17,C82A C89A,-2.78
18,A83C C97A,-3.66
19,U81C C123A,-0.309
20,C85U G120C,0.93
21,C85U G120U,0.655

row,Variant,polymerase ribozyme fitness (log ratio)
1,A74C U96A G117C,-5.37
2,C79A A91C,-3.69
3,A84G G122A,-1.44
4,U78C C82A C85U G93A,-1.53
5,U81A U106C G110A G113C C114U A119G,-5.29
6,A84C C88A,-0.593
7,A74G C80A C82U A118U,-2.93
8,A75G C94G,-1.19
9,C80U C123A,-0.37
10,U78C C97A,-4.81
11,U78C A83C C102U,-1.78
12,A83U G127U,-1.08
13,U81A C89U,-0.112
14,G77U C101G,-1.96
15,C80A A121G,-2.89
16,U78G A95G U125G,-1.07
17,C82U U96G,-1.12
18,A83U C89U U96C U131G,-1.02
19,C85A A121C,0.793
20,A83G A84U C102A U112A G127U,-3.04
21,A74C C79A U131G,-0.848

row,Variant,polymerase ribozyme fitness (log ratio)
1,C79A C123U,0.304
2,A83G G120A,0.774
3,A83G G120C,0.655
4,G77C C86G,-1.47
5,A74C C79A U125A,-1.75
6,U78A G117C A121C,-5.24
7,A74C U133A,-0.0752
8,G77A C94G,-1.19
9,U78C A83C C94U G110A A118U G120U U132C,-2.85
10,U78C U96G,-0.935
11,C80G C104U,-5.71
12,A74G U106A U125A,-0.353
13,C76A C82G C88U G110C,-5.82
14,A75U C76G C88G C89U A90G,-2.47
15,U78C U87G U126A,-2.18
16,C79A C115A G127C,-1.07
17,U78C A84C,-0.194
18,C82U U112A,1.08
19,U78C A83C,0.0151
20,C82U A83U A111U,-3.12

# — the RNAGym collection of RNA variant scans (doi:10.1073/pnas.2313332121)
